Source: patent US7037703B2, “COD URACIL-DNA GLYCOSYLASE, GENE CODING THEREFORE, RECOMBINANT DNA CONTAINING SAID GENE OR OPERATIVE PARTS THEREOF, A METHOD FOR PREPARING SAID PROTEIN AND THE USE OF SAID PROTEIN OR SAID OPERATIVE PARTS THEREOF IN MONITORING OR CONTROLLING PCR” (Biotec Pharmacon ASA, priority 2000, dated 2006)
Read-outs that look alike come from different tables or passages of the source.

Assays:
[1] = test system: cUNG (Atlantic cod uracil-DNA glycosylase); test: Product inhibition of cUNG with free uracil; format: biochemical, Atlantic cod (Gadus morhua)
Experimental: Different concentrations of uracil was added to the assay mixture and the assay performed as described in material and methods. Uracil-DNA glycosylase activity was measured in a final volume of 20 μl, containing 70 mM Tris/HCl, 10 mM NaCl, 1 mM EDTA, 100 μg/ml BSA and 230 ng nick-substrate or 71 ng PCR-substrate. The reaction mixture was incubated 10 min at 37° C., and terminated with the addition of 20 μl of ice cold single stranded calf thymus DNA (1 mg/ml) and 500 μl 10% (w/v) TCA. Samples were incubated on ice for 15 min, and centrifuged at 16,000 g for 10 min. Supernatants with acid soluble ^3H-uracil were analyzed using a liquid scintillation counter. Activity measurements using PCR-substrate were performed with 6.65×10^−4 U of purified cUNG. Various concentrations of uracil (0, 1, 2 and 5 mM) or Ugi-inhibitor (1.25×10^3 U to 2.00×10^2 U) were added to the assay mixtures (on ice). Activity was then measured as described under standard assay conditions.

[2] = test system: cUNG (Atlantic cod uracil-DNA glycosylase); test: Inhibition of cUNG with uracil-DNA glycosylase inhibitor (Ugi); format: biochemical, Atlantic cod (Gadus morhua); conditions: 6.65×10^−4 U cUNG, 1.25×10^3 U to 2.00×10^2 U Ugi
Experimental: 6.65×10^−4 U of cUNG was incubated with 1.25×10^3 U to 2.00×10^2 U of Ugi using standard assay conditions, as described in material and methods. One Unit of Ugi inhibit one Unit of UNG-activity, where the UNG-activty is defined as releasing 60 pmol of uracil per min at 37° C.
Uracil-DNA glycosylase activity was measured in a final volume of 20 μl, containing 70 mM Tris/HCl, 10 mM NaCl, 1 mM EDTA, 100 μg/ml BSA and 230 ng nick-substrate or 71 ng PCR-substrate. The reaction mixture was incubated 10 min at 37° C., and terminated with the addition of 20 μl of ice cold single stranded calf thymus DNA (1 mg/ml) and 500 μl 10% (w/v) TCA. Samples were incubated on ice for 15 min, and centrifuged at 16,000 g for 10 min. Supernatants with acid soluble ^3H-uracil were analyzed using a liquid scintillation counter.
Activity measurements using PCR-substrate were performed with 6.65×10^−4 U of purified cUNG. Various concentrations of uracil (0, 1, 2 and 5 mM) or Ugi-inhibitor (1.25×10^3 U to 2.00×10^2 U) were added to the assay mixtures (on ice). Activity was then measured as described under standard assay conditions.
Target sequence in this assay (as listed by the source): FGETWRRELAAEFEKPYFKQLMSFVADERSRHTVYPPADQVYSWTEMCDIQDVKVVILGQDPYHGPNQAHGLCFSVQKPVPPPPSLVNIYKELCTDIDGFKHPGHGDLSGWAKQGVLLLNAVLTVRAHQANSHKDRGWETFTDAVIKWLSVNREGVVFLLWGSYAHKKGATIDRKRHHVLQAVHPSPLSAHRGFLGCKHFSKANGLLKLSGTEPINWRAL

[3] = cited from earlier work; for half-life: literature (45)
[4] = test system: PCR generated uracil-containing DNA substrate; conditions: literature value (64); cited from earlier work
[5] = Effect of pH on stability (residual UNG activity); format: physicochemical
Experimental: In the different pH-buffer, 1 U of cUNG (Δ) or rhUNG (□) were incubated for 10 minutes at 37° C. Then 5 μl aliquotes were transfered to the assay mixture, and residual activity was measured using standard assay conditions as described in materials and methods. One hundred percent activity was measured directly from a sample diluted at pH 8.0 without any incubation step.
pH: UNG (0.01 U) was preincubated (in a total volume of 75 μl) for 10 min at 37° in buffers containing 10 mM buffer, 10 mM NaCl, 1 mM EDTA, 1% glycerol, with pH ranging from 9.5-6.5 with 0.5 pH unit intervals using diethanolamine/HCl (9.5-8.5), Tris/HCl (8.5-7.5), MOPS/NaOH (7.5-6.5) and MES/NaOH (6.5-5.5) as buffer components. Aliquots of 5 μl were transferred to the assay mixtures and residual activity was measured using standard assay conditions.

[6] = Effect of temperature on stability (half-life of UNG activity); format: physicochemical
Experimental: Enzyme (1 U) were incubated at 50° C., 37° C., 25° C. and 4° C., and 5 μl aliquotes were transferred to the assay mixture after different time intervals, and standard assays were performed as described in material and methods. Half-lifes were determined to 0.5 min (50° C.), 20 min (37° C.), 60 min (25° C.) and 2 h (4° C.) for cUNG and 8 min (50° C.) 30 min (37° C.), 150 min (25° C.) and 2.6 h (4° C.) for rhUNG.
(§1) Assays were done in a volume of 20 μl as described in standard assay using the PCR generated substrate. The assay mixtures were as described in standard assay conditions and were adjusted to pH 8.0 for all temperatures. The temperature range used was 5° C. to 60° C. The activity was measured in a sequential manner with 15 min intervals, between each temperature. The enzymes used were diluted in standard dilution buffer (5 mM Tris/HCl, 10 mM NaCl, 1% (v/v) glycerol, pH 8.0) and placed on ice.
Temperature: UNG (0.01 U) was preincubated (in a total volume of 75 μl) in 10 mM Tris/HCl, 50 mM NaCl, 1 mM EDTA, 1% glycerol, pH 8.0 (adjusted at each temperature).

[7] = test system: PCR generated uracil-containing DNA substrate; test: Determination of temperature optimum / temperature profile; format: biochemical
Experimental: Due to prolonged incubation of the enzyme sample on ice during the experiment, activity is corrected with respect to the stability of the enzyme, as described in material and methods.
Enzyme activity was measured as described in material and methods. The percent UNG activity is set relative to the highest value for cUNG (45° C.) and rhUNG (50° C.) respectively. Due to prolonged incubation of the enzyme samples on ice during the experiment, activity is corrected with respect to the stability of the enzymes, as described in material and methods.
as §1

Q: For O=c1cc[nH]c(=O)[nH]1 [uracil], which “inhibition of cUNG activity” value ([1]; 1 mM uracil in the assay mixture) is on record?
A: more than 50%

Q: And the “inhibition of cUNG activity” value ([1]; 5 mM free uracil in the assay mixture)?
A: 78%

B1: Ugi: Bacillus subtilis bacteriophage PBS2 UDG-inhibitor, obtained from New England Biolabs (protein)
chain: MTNLSDIIEKETGKQLVIQESILMLPEEVEEVIGNKPESDILVHTAYDESTDENVMLLTSDAPEYKPWALVIQDSNGENKIKML
Q: Which “effect of Ugi on cUNG activity” value [2] does the source give for B1 here?
A: clearly inhibited

B2: E. coli UNG: commercially available UNG (or UDG) from Escherichia coli used in carry-over prevention (protein, UniProt P12295 2-229, looked up)
Uracil-DNA glycosylase: ANELTWHDVLAEEKQQPYFLNTLQTVASERQSGVTIYPPQKDVFNAFRFTELGDVKVVILGQDPYHGPGQAHGLAFSVRPGIAIPPSLLNMYKELENTIPGFTRPNHGYLESWARQGVLLLNTVLTVRAGQAHSHASLGWETFTDKVISLINQHREGVVFLLWGSHAQKKGAIIDKQRHHVLKAPHPSPLSAHRGFFGCNHFVLANQWLEQRGETPIDWMPVLPAESE
Q: Which results are given for B2?
A: half-life ([3]; 40° C.): 27 min; half-life ([3]; 45° C.): 8 min; inactivation by heat treatment / reactivation ([3]; literature (60), (45)): not completely inactivated

B3: rhUNG: purified recombinant mesophilic human UNG (UNGΔ84) provided by Dr. Krokan (protein, UniProt P13051 85-304, looked up, fragment)
chain: LAARNVPVGFGESWKKHLSGEFGKPYFIKLMGFVAEERKHYTVYPPPHQVFTWTQMCDIKDVKVVILGQDPYHGPNQAHGLCFSVQRPVPPPPSLENIYKELSTDIEDFVHPGHGDLSGWAKQGVLLLNAVLTVRAHQANSHKERGWEQFTDAVVSWLNQNSNGLVFLLWGSYAQKKGSAIDRKRHHVLQTAHPSPLSVYRGFFGCRHFSKTNELLQKSG
Q: With B3 as the molecule, how does the temperature optimum [4] read?
A: 45 °C

Q: What about the residual activity ([5]; pH 10.0, 10 min at 37° C.) of the same molecule?
A: 66%

Q: And the “pH range in which most stable” value ([5]; preincubated 10 min at 37° C.)?
A: 7.0-9.5

Q: And the half-life ([6]; 4° C., pH 8.0)?
A: 156 min

Q: What about the half-life ([6]; 25° C., pH 8.0) of the same molecule?
A: 150 min

Q: What about the half-life ([6]; 37° C., pH 8.0) of the same molecule?
A: 30 min

Q: What about the half-life ([6]; 50° C., pH 8.0) of the same molecule?
A: 8 min

Q: What about the half-life ([6]; enzyme in standard dilution buffer on ice) of the same molecule?
A: 156 min

Q: And the “temperature of highest activity value in temperature profile” value ([7]; FIG. 6, 5-60° C.)?
A: 50 °C

Q: And the “relative activity compared with cUNG” value ([7]; temperatures higher than 45° C.)?
A: higher relative activity
